The text below walks through data of patent publication US20240082346A1 (MAINLINE BIOSCIENCES SHANGHAI, published 2024).

Bridge positions count the residues as written; N and C are the ends. Square brackets hold non-standard residues; d marks the D form. * marks the point of attachment. 2Nal = N[C@@H](Cc1ccc2ccccc2c1)C(=O)O; Lys(iPr) = CC(C)NCCCC[C@H](N)C(=O)O; Palmitoyl = CCCCCCCCCCCCCCCC(=O)*; Lauroyl = CCCCCCCCCCCC(=O)*; hCys = N[C@@H](CCS)C(=O)O; PhAc = O=C(Cc1ccccc1)*; Bz = O=C(c1ccccc1)*; Mpa = O=C(O)CCS; iPr = CC(C)*

This test deals with T1, Human chemokine receptor CXCR4 (human, UniProt P61073 1-352).
T1 construct: whole, on cells; Membranes of Chem-1 cells expressing human CXCR4 (0.5 ug membrane protein per aliquot); also called C-X-C chemokine receptor type 4; fusin
T1 sequence (P61073 whole entry): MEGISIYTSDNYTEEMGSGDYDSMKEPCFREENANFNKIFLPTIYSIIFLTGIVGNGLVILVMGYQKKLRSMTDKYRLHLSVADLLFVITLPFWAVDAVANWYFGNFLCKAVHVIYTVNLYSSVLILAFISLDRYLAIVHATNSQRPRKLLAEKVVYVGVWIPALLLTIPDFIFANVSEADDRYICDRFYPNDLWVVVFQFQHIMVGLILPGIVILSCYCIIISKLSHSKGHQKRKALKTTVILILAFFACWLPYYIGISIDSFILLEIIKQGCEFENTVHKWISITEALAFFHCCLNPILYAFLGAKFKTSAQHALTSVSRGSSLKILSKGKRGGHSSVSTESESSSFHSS
The test can be described thus: displacement of [125I]SDF-1α (0.03 nM) from membranes of Chem-1 cells expressing human CXCR4. As to the method: Human CXCR4/¹²⁵I-SDF-1α Binding Inhibition Assay: Human chemokine receptor CXCR4 expressed in Chem-1 cells were used in modified HEPES buffer pH 7.4. A 0.5 μg (Membrane protein may change from lot to lot, the concentration used were adjusted as necessary), aliquot was incubated with 0.03 nM [¹²⁵I]SDF-1α for 90 minutes at 25° C. Non-specific binding was estimated in the presence of 30 nM SDF-la. Membranes were filtered and washed, filters were then counted to determine [¹²⁵I]SDF-1α specifically bound. Compounds were screened starting at 10 μM with 11-point dilutions (Valenzuela-Fernandez A, et al. J Biol Chem. 277(18):15677, 2002).
Background: Displacement assays read how much labelled ligand stays bound in the presence of the test substance.
As for “[Mpa]Y[Lys(iPr)][dR][2Nal]GC[Lys(iPr)]G[2Nal]G-NH2 (disulfide 1-7)”, the Binding Kb came to 0.29 nM and the IC50 was determined as 0.95 nM.
Consider [Mpa]RYR[2Nal]GCRG[dF]G-NH2 (disulfide 1-7; also: acetate salt, Acetate salt; also called MLB-011) [cyclo[Mpa-Arg-Tyr-Arg-2Nal-Gly-Cys]-Arg-Gly-(D-Phe)-Gly-NH2], for which the “Binding Kb” value was more than 1000 nM.
As for PhAc-[hCys]YK(iPr)[dR][2Nal]GCK(iPr)G-NH2 (disulfide 1-7; also: acetate salt, also called MLB-025) [Phenylacetyl-cyclo[hCys-Tyr-Lys(iPr)-(D-Arg)-2Nal-Gly-Cys]-Lys(iPr)-Gly-NH2], the “Binding Kb” value stood at 0.25 nM and the IC50 worked out at 0.84 nM.
Regarding Ac-[hCys]YK(iPr)[dR][2Nal]GCK(iPr)G-NH2 (disulfide 1-7; also: acetate salt, Acetate salt; also called MLB-010) [Ac-cyclo[hCys-Tyr-Lys(iPr)-(D-Arg)-2Nal-Gly-Cys]-Lys(iPr)-Gly-NH2], the “Binding Kb” value was determined as 0.17 nM and the IC50 worked out at 0.56 nM.
As for Bz-[hCys]YK(iPr)[dR][2Nal]GCK(iPr)G-NH2 (disulfide 1-7; also: acetate salt, Acetate salt; also called MLB-021) [Benzoyl-cyclo[hCys-Tyr-Lys(iPr)-(D-Arg)-2Nal-Gly-Cys]-Lys(iPr)-Gly-NH2], the “Binding Kb” value turned out to be 0.13 nM and the IC50 came to 0.42 nM.
In the case of [Mpa]YK(iPr)[dR][2Nal]GC[dR]G[dF]G-NH2 (disulfide 1-7; also: acetate salt, also called MLB-004) [cyclo[Mpa-Tyr-Lys(iPr)-(D-Arg)-2Nal-Gly-Cys]-(D-Arg)-Gly-(D-Phe)-Gly-NH2], the “Binding Kb” value is 0.21 nM and the IC50 came to 0.7 nM.
Regarding Ac-[hCys]YK(iPr)[dR][2Nal]GCK(iPr)G-NHEt (disulfide 1-7; also: acetate salt, Acetate salt; also called MLB-026) [Ac-cyclo[hCys-Tyr-Lys(iPr)-(D-Arg)-2Nal-Gly-Cys]-Lys(iPr)-Gly-NH(Et)], the “Binding Kb” value worked out at 0.27 nM and the IC50 stood at 0.89 nM.
For [Mpa]YK(iPr)[dR][2Nal]GCK(iPr)G-NHEt (disulfide 1-7; also: acetate salt, Acetate salt; also called MLB-014) [cyclo[Mpa-Tyr-Lys(iPr)-(D-Arg)-2Nal-Gly-Cys]-Lys(iPr)-Gly-NH(Et)], the “Binding Kb” value is 0.19 nM and the IC50 worked out at 0.64 nM.
Regarding Bz-CYK(iPr)[dR][2Nal]GCK(iPr)G-NH2 (linker 1-7 via 1,2‑bis(methylene)benzene; also: acetate salt, Acetate salt) [MLB-030 (compound of Example 20; structure given only as drawing CHEM-US-00013)], the “Binding Kb” value is 0.39 nM and the IC50 turned out to be 1.3 nM.
On to Ac-CYK(iPr)[dR][2Nal]GCK(iPr)G-NH2 (linker 1-7 via 1,3‑bis(methylene)benzene; also: acetate salt, Acetate salt) [MLB-033 (compound of Example 23; structure given only as drawing CHEM-US-00016)], for which the “Binding Kb” value was 0.99 nM and the IC50 amounted to 3.3 nM.
Regarding Bz-CYK(iPr)[dR][2Nal]G[hCys]K(iPr)G-NH2 (disulfide 1-7; also: acetate salt, Acetate salt; also called MLB-022) [Benzoyl-cyclo[Cys-Tyr-Lys(iPr)-(D-Arg)-2Nal-Gly-hCys]-Lys(iPr)-Gly-NH2], the “Binding Kb” value is 0.21 nM and the IC50 is 0.71 nM.
The matching figures for [Mpa]YK(iPr)[dR][2Nal]GCK(iPr)K(Ac)-NHEt (disulfide 1-7; also: acetate salt, Acetate salt; also called MLB-027) [cyclo[Mpa-Tyr-Lys(iPr)-(D-Arg)-2Nal-Gly-Cys]-Lys(iPr)-Lys(Ac)-NH(Et)]: 0.15 nM and 0.48 nM.
The matching figures for [Mpa]YK(iPr)[dR][2Nal]GCK(iPr)K(Lauroyl)-NHEt (disulfide 1-7; also: acetate salt, Acetate salt; also called MLB-028) [cyclo[Mpa-Tyr-Lys(iPr)-(D-Arg)-2Nal-Gly-Cys]-Lys(iPr)-Lys(lauroyl)-NH(Et)]: 2.5 nM and 8.2 nM.
With Ac-CYK(iPr)[dR][2Nal]GCK(iPr)G-NH2 (linker 1-7 via 1,2‑bis(methylene)benzene; also: acetate salt, Acetate salt) [MLB-032 (compound of Example 22; structure given only as drawing CHEM-US-00015)], the “Binding Kb” value was 0.12 nM and the IC50 is 0.4 nM.
For the molecule [Mpa]YK(iPr)[dR][2Nal]GCK(iPr)K(Palmitoyl)-NHEt (disulfide 1-7; also: acetate salt, Acetate salt; also called MLB-029) [cyclo[Mpa-Tyr-Lys(iPr)-(D-Arg)-2Nal-Gly-Cys]-Lys(iPr)-Lys(palmitoyl)-NH(Et)], the “Binding Kb” value was 3.2 nM and the IC50 is 11 nM.
Bz-CYK(iPr)[dR][2Nal]GCK(iPr)G-NH2 (disulfide 1-7; also: acetate salt, Acetate salt; also called MLB-023) [Benzoyl-cyclo[Cys-Tyr-Lys(iPr)-(D-Arg)-2Nal-Gly-Cys]-Lys(iPr)-Gly-NH2]: the “Binding Kb” value worked out at 1 nM and the IC50 came out at 3.4 nM.
The matching figures for Bz-[hCys]YK(iPr)[dR][2Nal]GCK(iPr)G-NHEt (disulfide 1-7; also: acetate salt, Acetate salt; also called MLB-024) [Benzoyl-cyclo[hCys-Tyr-Lys(iPr)-(D-Arg)-2Nal-Gly-Cys]-Lys(iPr)-Gly-NH(Et)]: 0.39 nM and 1.3 nM.
As for [Mpa]YK(iPr)[dR][2Nal]GCRG[dF]G-NH2 (disulfide 1-7; also: acetate salt, Acetate salt; also called MLB-002) [cyclo[Mpa-Tyr-Lys(iPr)-(D-Arg)-2Nal-Gly-Cys]-Arg-Gly-(D-Phe)-Gly-NH2], the “Binding Kb” value turned out to be 0.28 nM and the IC50 is 0.92 nM.
Regarding [Mpa]YR[dR][2Nal]GCRG[dF]G-NH2 (disulfide 1-7; also: acetate salt, Acetate salt; also called MLB-001) [cyclo[Mpa-Tyr-Arg-(D-Arg)-2Nal-Gly-Cys]-Arg-Gly-(D-Phe)-Gly-NH2], the “Binding Kb” value amounted to 7.3 nM and the IC50 was 24 nM.

As a reminder, the IC50 is the concentration that gives 50% inhibition.
